Test results from US20250243281A1 (IMMUNITAS THERAPEUTICS, published 2025).
Substitutions are numbered along the chain they refer to.

B1: Ab18 (antibody, human IgG1, V domains shown)
VH: QVQLVESGGGLVKPGGSLRLSCAASGFTFSQYYMSWIRQAPGKGLEWVSYISPSGATIAYADSVKGRFTISRDNAKNSLYLQMNSLRAEDTAVYYCARSLMATGTHLYFDLWGRGTLVTVSS
VL: DIQLTQSPSSVSASVGDRVTITCRASQGISSWLAWYQQKPGKAPKLLIYAAESLQSGVPSRFSGSGSGTDFTLTISSLQPEDFATYYCQQVTSQPPYTFGGGTKVEIK
notes: IgG purified from yeast culture
B2: Ab12 (antibody, human IgG1, V domains shown)
VH: B1 VH with S30A, A56S
VL: B1 VL with G28D, E52S, Q94F
notes: as for B1
B3: Ab13 (antibody, human IgG1, V domains shown)
VH: B1 VH with S30A, Q31N
VL: B1 VL with Q27S, E52S, S53E, V91A, Q94F
notes: as for B1
B4: Ab14 (antibody, human IgG1, V domains shown)
VH: B1 VH with S30G, A102S
VL: B1 VL with S31D, E52S, Q94F
notes: as for B1
B5: Ab3 (antibody, human IgG1, V domains shown)
VH: EVQLLESGGGLVQPGGSLRLSCAASGFTFERYAMSWVRQAPGKGLEWVSAISAAGGTTYYADSVKGRFTISRDNSKNTLYLQMNSLRAEDTAVYYCAKPLDSSQWADFDLWGRGTLVTVSS
VL: DIQLTQSPSSVSASVGDRVTITCRASQDISSWLAWYQQKPGKAPKFLIYAASALQSGVPSRFSGSGSGTDFTLTISSLQPEDFATYYCQQALVLPITFGGGTKVEIK
notes: as for B1
B6: Ab11 (antibody, human IgG1, V domains shown)
VH: B5 VH with E30S, R31Q
VL: B5 VL with D28G, S30Y, F46L, A53S, L92S, V93D
notes: as for B1
B7: Ab10 (antibody, human IgG1, V domains shown)
VH: B5 VH with E30S, R31Q, A54V, T57S
VL: B5 VL with F46L, L92D
notes: as for B1

These binders were tested against T1, hKLRF2 (human, UniProt D3W0D1 1-207) (assay: flow cytometry; 100 nM antibody on HEK293 cells expressing KLRF2; Alexa Fluor 647 anti-human IgG; MFI).
T1 construct: Overexpressed on HEK293 cells
T1 sequence: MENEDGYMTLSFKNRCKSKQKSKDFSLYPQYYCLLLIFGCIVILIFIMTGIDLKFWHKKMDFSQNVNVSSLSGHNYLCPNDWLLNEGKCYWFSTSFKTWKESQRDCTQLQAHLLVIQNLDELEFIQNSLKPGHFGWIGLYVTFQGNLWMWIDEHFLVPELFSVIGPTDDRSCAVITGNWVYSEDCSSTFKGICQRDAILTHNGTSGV
Procedure: (§1) For the antibody binding assay, all cell lines were washed in phosphate-buffered saline with 0.1% bovine serum albumin (PBSA) and seeded in a 96 well plate at a density of 4×10⁴ cells per well. Washed cells were resuspended in 100 nM of antibody (a saturating concentration to measure maximum binding on cells) and incubated at room temperature for 30 minutes. […] Cells were analyzed by flow cytometry with a Thermo Fisher Attune flow cytometer.
(§2) Data were analyzed using FlowJo software. MFI for each sample was calculated and exported into Graphpad Prism.

Row | Binder | binding result
1 | B1 | no binding (tested: 100 nM)
2 | B2 | no binding (tested: 100 nM)
3 | B3 | no binding (tested: 100 nM)
4 | B4 | no binding (tested: 100 nM)

The binders below were run against T2, hKLRF1 (human, UniProt Q9NZS2 1-231) (assay: flow cytometry; 100 nM antibody on HEK293 cells expressing KLRF1; Alexa Fluor 647 anti-human IgG; MFI).
T2 construct: Overexpressed on HEK293 cells
T2 sequence: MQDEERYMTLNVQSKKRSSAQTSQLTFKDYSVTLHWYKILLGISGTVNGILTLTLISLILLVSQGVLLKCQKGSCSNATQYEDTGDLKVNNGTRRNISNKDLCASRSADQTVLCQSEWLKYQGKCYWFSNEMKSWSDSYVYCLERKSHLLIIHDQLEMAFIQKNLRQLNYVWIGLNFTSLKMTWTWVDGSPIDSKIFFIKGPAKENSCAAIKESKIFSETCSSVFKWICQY
Procedure: as §1, §2

Row | Binder | binding result
5 | B5 | no binding (tested: 100 nM)
6 | B6 | no binding (tested: 100 nM)
7 | B7 | no binding (tested: 100 nM)

Each binder was assayed against T3, hCLEC12B (human, UniProt Q2HXU8 1-276) (assay: flow cytometry, HEK293 transfectants, 100 nM antibody;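 also: antibody applied at a saturating level and incubated with cells for 30 min at room temperature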).
T3 construct: Overexpressed on HEK293 cells
T3 sequence: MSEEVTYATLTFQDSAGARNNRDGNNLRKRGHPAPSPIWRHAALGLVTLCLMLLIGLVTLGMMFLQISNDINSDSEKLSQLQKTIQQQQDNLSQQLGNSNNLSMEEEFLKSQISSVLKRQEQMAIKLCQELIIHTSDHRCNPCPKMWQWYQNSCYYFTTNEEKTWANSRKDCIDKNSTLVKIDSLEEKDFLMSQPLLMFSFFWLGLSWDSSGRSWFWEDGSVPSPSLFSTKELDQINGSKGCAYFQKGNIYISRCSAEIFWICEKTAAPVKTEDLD
Procedure: as §1, §2

Row | Binder | % of CD161 binding [%]
8 | B1 | 0.169
9 | B2 | 0.061
10 | B3 | 0.175
11 | B4 | 0.064
12 | B5 | -0.042
13 | B6 | -0.003
14 | B7 | -0.004

The binders below were run against T4, hCLEC2D (human, UniProt Q9UHP7 1-191) in the same assay as above.
T4 construct: Overexpressed on HEK293 or K562 cells; the same id is used for endogenous CLEC2D on NALM6 and Raji cells; also called LLT1
T4 sequence: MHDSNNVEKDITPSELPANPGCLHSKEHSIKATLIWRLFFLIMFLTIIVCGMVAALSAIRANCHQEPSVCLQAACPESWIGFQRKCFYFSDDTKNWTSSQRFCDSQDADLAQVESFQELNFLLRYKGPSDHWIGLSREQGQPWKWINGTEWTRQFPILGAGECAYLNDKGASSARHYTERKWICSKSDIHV
Procedure: as §1, §2

Row | Binder | % of CD161 binding [%]
15 | B1 | 0.865
16 | B2 | 1.16
17 | B3 | 0.907
18 | B4 | 1.02
19 | B5 | 0.832
20 | B6 | 0.785
21 | B7 | 0.935

These binders were tested against T2, hKLRF1 in the same assay as above.
Procedure: as §1, §2

Row | Binder | % of CD161 binding [%]
22 | B1 | 0.121
23 | B2 | 0.065
24 | B3 | 0.106
25 | B4 | 0.09
26 | B5 | 0.011
27 | B6 | 0.024
28 | B7 | 0.046

The binders below were run against T1, hKLRF2 in the same assay as above.
Procedure: as §1, §2

Row | Binder | % of CD161 binding [%]
29 | B1 | 0.101
30 | B2 | 0.055
31 | B3 | 0.089
32 | B4 | 0.054
33 | B5 | -0.007
34 | B6 | 0.021
35 | B7 | 0.004

Biological target: T1, hKLRF2
Experiment: flow cytometry; 100 nM antibody on HEK293 cells expressing KLRF2; Alexa Fluor 647 anti-human IgG; MFI
Remark: another data set of the same source
Procedure: as §1, §2

Row | Binder | binding result
36 | B6 | no binding (tested: 100 nM)
37 | B7 | no binding (tested: 100 nM)

What follows are binders tested against T4, hCLEC2D (assay: flow cytometry; 100 nM antibody on HEK293 cells expressing CLEC2D; Alexa Fluor 647 anti-human IgG; MFI).
Procedure: as §1, §2

Row | Binder | binding result
38 | B1 | no binding (tested: 100 nM)
39 | B2 | no binding (tested: 100 nM)
40 | B3 | no binding (tested: 100 nM)
41 | B4 | no binding (tested: 100 nM)

What follows are binders tested against T3, hCLEC12B (assay: flow cytometry; 100 nM antibody on HEK293 cells expressing CLEC12B; Alexa Fluor 647 anti-human IgG; MFI).
Procedure: as §1, §2

Row | Binder | binding result
42 | B1 | no binding (tested: 100 nM)
43 | B2 | no binding (tested: 100 nM)
44 | B3 | no binding (tested: 100 nM)
45 | B4 | no binding (tested: 100 nM)

Biological target: T2, hKLRF1
Experiment: flow cytometry; 100 nM antibody on HEK293 cells expressing KLRF1; Alexa Fluor 647 anti-human IgG; MFI
Remark: another data set of the same source
Procedure: as §1, §2

Row | Binder | binding result
46 | B1 | no binding (tested: 100 nM)
47 | B2 | no binding (tested: 100 nM)
48 | B3 | no binding (tested: 100 nM)
49 | B4 | no binding (tested: 100 nM)

Biological target: T4, hCLEC2D
Experiment: flow cytometry; 100 nM antibody on HEK293 cells expressing CLEC2D; Alexa Fluor 647 anti-human IgG; MFI
Remark: another data set of the same source
Procedure: as §1, §2

Row | Binder | binding result
50 | B5 | no binding (tested: 100 nM)
51 | B6 | no binding (tested: 100 nM)
52 | B7 | no binding (tested: 100 nM)
